Series [1] is described as follows: secretion into CHO culture medium (unpublished data). As to conditions: glycan lost; control: wild type.
Series [2] can be described thus: cellular trafficking, method not given. The following applies: glycan lost; control: wild type.

The values that follow come from PMC3929087.

B1: angiotensin I-converting enzyme (somatic ACE): N1162Q (protein)
parent chain: MGAASGRRGPGLLLPLPLLLLLPPQPALALDPGLQPGNFSADEAGAQLFAQSYNSSAEQVLFQSVAASWAHDTNITAENARRQEEAALLSQEFAEAWGQKAKELYEPIWQNFTDPQLRRIIGAVRTLGSANLPLAKRQQYNALLSNMSRIYSTAKVCLPNKTATCWSLDPDLTNILASSRSYAMLLFAWEGWHNAAGIPLKPLYEDFTALSNEAYKQDGFTDTGAYWRSWYNSPTFEDDLEHLYQQLEPLYLNLHAFVRRALHRRYGDRYINLRGPIPAHLLGDMWAQSWENIYDMVVPFPDKPNLDVTSTMLQQGWNATHMFRVAEEFFTSLELSPMPPEFWEGSMLEKPADGREVVCHASAWDFYNRKDFRIKQCTRVTMDQLSTVHHEMGHIQYYLQYKDLPVSLRRGANPGFHEAIGDVLALSVSTPEHLHKIGLLDRVTNDTESDINYLLKMALEKIAFLPFGYLVDQWRWGVFSGRTPPSRYNFDWWYLRTKYQGICPPVTRNETHFDAGAKFHVPNVTPYIRYFVSFVLQFQFHEALCKEAGYEGPLHQCDIYRSTKAGAKLRKVLQAGSSRPWQEVLKDMVGLDALDAQPLLKYFQPVTQWLQEQNQQNGEVLGWPEYQWHPPLPDNYPEGIDLVTDEAEASKFVEEYDRTSQVVWNEYAEANWNYNTNITTETSKILLQKNMQIANHTLKYGTQARKFDVNQLQNTTIKRIIKKVQDLERAALPAQELEEYNKILLDMETTYSVATVCHPNGSCLQLEPDLTNVMATSRKYEDLLWAWEGWRDKAGRAILQFYPKYVELINQAARLNGYVDAGDSWRSMYETPSLEQDLERLFQELQPLYLNLHAYVRRALHRHYGAQHINLEGPIPAHLLGNMWAQTWSNIYDLVVPFPSAPSMDTTEAMLKQGWTPRRMFKEADDFFTSLGLLPVPPEFWNKSMLEKPTDGREVVCHASAWDFYNGKDFRIKQCTTVNLEDLVVAHHEMGHIQYFMQYKDLPVALREGANPGFHEAIGDVLALSVSTPKHLHSLNLLSSEGGSDEHDINFLMKMALDKIAFIPFSYLVDQWRWRVFDGSITKENYNQEWWSLRLKYQGLCPPVPRTQGDFDPGAKFHIPSSVPYIRYFVSFIIQFQFHEALCQAAGHTGPLHKCDIYQSKEAGQRLATAMKLGFSRPWPEAMQLITGQPNMSASAMLSYFKPLLDWLRTENELHGEKLGWPQYNWTPNSARSEGPLPDSGRVSFLGLDLDAQQARVGQWLLLFLGIALLVATLGLSQRLFSIRHRSLHRHSHGPQFGSEVELRHS
B1: the expression_or_secretion result in series [1] is on record as “no change”. Also, the localisation_or_trafficking entry in series [2] was “no change”.
